Results on 14 molecules are retold here after US20260125454A1 (SHANGHAI JUNSHI BIOSCIENCES, published 2026).

For one assay, the target named is T1, Biotin-huCGRPaSA (human, not fully specified; biotin (position not given)).
T1 construct: exact construct ('aSA') not explained; also called Biotin CGRPaSA; full-length (1-37) CGRP
T1 peptide: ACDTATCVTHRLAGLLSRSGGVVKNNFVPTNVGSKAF
Kind of assay: ELISA, supernatant; relative to chimeric C245. In a few lines:
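Antibodies, including reference chimeric C245, titrated 2.5-fold from 1000 ng/mL and incubated 60 min at 37°C on wells coated with 1.0 μg/mL biotin-CGRPaSA and blocked with 2% BSA. Bound IgG detected with HRP anti-human Fc antibody and TMB, acid-stopped, absorbance 450/620 nm.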

For the next assay, the target named is CGRP antigen. Kind of assay: cell-based or functional assay.

B1: hu182 (antibody, V domains shown)
VH: QVQLVQSGAEVKKPGASVKVSCKASGYTFTDYNMHWVRQAPGQGLEWMGYISPYNGGTAYNQKFKFRVTLTVDTSSSTAYMELSRLRSDDTVVYYCAREGLGGYWGQGTLVTVSS
VL: DIQLTQSPSSLSASVGDRVTITCKASQNIDYGGYSYMNWYQQKPGKAPKVLIYSVFNLESGVPSRFSGSGSGTDFTLTISSLQPEDFATYYCQQSNEAPYTFGQGTKLEIK
notes: 3E5 HC-3/3H10 LC2-2
For the molecule B1, the “Relative binding activity, %” value with Biotin-huCGRPaSA was 31%.

B2: hu195 (antibody, V domains shown)
VH: QVQLVQSGAEVKKPGASVKVSCKTSGYTFTDYNMHWVRQAPGQRLEWMGYISPYNAGTAYNQKFKFRVTLTVDTSSSTAYMELSSLRSEDTAVYYCAREGLGGYWGQGTLVTVSS
VL: DIQLTQSPSSLSASVGDRVTITCKASQNIDYGGYSYMNWYQQKPGKAPKVLIYSVFNLESGVPSRFSGSGSGTDFTLTISSLQPEDFATYYCQQSNEAPYTFGQGTKLEIK
notes: 3E5 HC-4/3H10 LC2-2
Take B2: in the assay with Biotin-huCGRPaSA, the “Relative binding activity, %” value came out at 23%.

B3: hu189 (antibody, V domains shown)
VH: QVQLVQSGAEVKKPGASVKVSCKTSGYTFTDYNMHWVRQAPGQRLEWMGYISPYNAGTAYNQKFKFRVTLTVDTSSSTAYMELSSLRSEDTAVYYCAREGLGGYWGQGTLVTVSS
VL: DIVLTQSPASLAVSPGQRATITCKASQNIDFDGYAYMNWYQQKPGQPPKVLIYSVFNLESGVPARFSGSGSGTDFTLTINPVEADDTANYYCQQSHEVPYTFGQGTKLEIK
notes: 3E5 HC-4/1F5 LC1-3
Regarding B3, in the assay with Biotin-huCGRPaSA, the “Relative binding activity, %” value turned out to be 73%.

B4: hu185 (antibody, V domains shown)
VH: QVQLVQSGAEVKKPGASVKVSCKTSGYTFTDYNMHWVRQAPGQRLEWMGYISPYNAGTAYNQKFKFRVTLTVDTSSSTAYMELSSLRSEDTAVYYCAREGLGGYWGQGTLVTVSS
VL: EIVLTQSPATLSLSPGERATLSCKASQNIDYDGYAYLNWYQQKPGQAPRVLIYSVFNLESGIPARFSGSGSGTDFTLTISSLEPEDFAVYYCQQSNEFPYTFGQGTKLEIK
notes: 3E5 HC-4/1A2 LC2-3
For the molecule B4, the “Relative binding activity, %” value in the assay with Biotin-huCGRPaSA was 19%.

B5: hu37 (antibody, V domains shown)
VH: QVQLVQSGAEVKKPGASVKVSCKASGYTFIDFNMHWVRQAPGQRLEWMGYIYPYNGDVVYNQNFTNRVTLTVDTSSSTAYMELSSLRSEDTAVYYCAREGLGGYWGQGTLVTVSS
VL: DIVLTQSPDSLAVSLGERATINCKASQNIDYDGYTYLNWYQQKPGQPPKVLIYSIFNLESGVPDRFSGSGSGTDFTLTISSLQAEDVAVYYCQQSNEVPYTFGQGTKLEIK
notes: 1F5 HC-1/3E5 LC-1
One may read the IC50 as the point on the concentration scale where inhibition reaches its midpoint. A low value points to inhibition by little substance. Regarding B5, in the assay with CGRP antigen, half-maximal inhibition (IC50) required 0.0784 µg/mL and the “relative activity (%) vs Ref(TEVA)” value amounted to 46%. Besides, in the assay with Biotin-huCGRPaSA, the “Relative binding activity, %” value was found to be 142%.

B6: hu190 (antibody, V domains shown)
VH: QVQLVQSGAEVKKPGASVKVSCKTSGYTFTDYNMHWVRQAPGQRLEWMGYISPYNAGTAYNQKFKFRVTLTVDTSSSTAYMELSSLRSEDTAVYYCAREGLGGYWGQGTLVTVSS
VL: DIVLTQSPDSLAVSLGERATINCKASQNIDFDGYAYMNWYQHKPGQPPKVLIYSVFNLESGVPDRFSGSGSGTDFTLTISSLQAEDVAVYYCQQSHEVPYTFGQGTKLEIK
notes: 3E5 HC-4/1F5 LC1-4
For the molecule B6, the “Relative binding activity, %” value with Biotin-huCGRPaSA turned out to be 34%.

B7: hu177 (antibody, V domains shown)
VH: QVQLVQSGAEVKKPGASVKVSCKASGYTFTDYNMHWVRQAPGQGLEWMGYISPYNGGTAYNQKFKFRVTLTVDTSSSTAYMELSRLRSDDTVVYYCAREGLGGYWGQGTLVTVSS
VL: DIVLTQSPDSLAVSLGERATINCKASQNIDFDGYAYMNWYQHKPGQPPKVLIYSVFNLESGVPDRFSGSGSGTDFTLTISSLQAEDVAVYYCQQSHEVPYTFGQGTKLEIK
notes: 3E5 HC-3/1F5 LC1-4
Take B7: the “Relative binding activity, %” value with Biotin-huCGRPaSA came to 25%.

B8: hu194 (antibody, V domains shown)
VH: QVQLVQSGAEVKKPGASVKVSCKTSGYTFTDYNMHWVRQAPGQRLEWMGYISPYNAGTAYNQKFKFRVTLTVDTSSSTAYMELSSLRSEDTAVYYCAREGLGGYWGQGTLVTVSS
VL: DIVLTQSPDSLAVSLGERATINCKASQNIDYGGYSYMNWYQQKPGQPPKVLIYSVFNLESGVPDRFSGSGSGTDFTLTISSLQAEDVAVYYCQQSNEAPYTFGQGTKLEIK
notes: 3E5 HC-4/3H10 LC2-1
For B8, the “Relative binding activity, %” value in the assay with Biotin-huCGRPaSA was 98%.

B9: hu169 (antibody, V domains shown)
VH: QVQLVQSGAEVKKPGASVKVSCKASGYTFTDYNMHWVRQAPGQRLEWMGYISPYNGGTAYNQKFKFRVTLTVDTSSSTAYMELSSLRSEDTAVYYCAREGLGGYWGQGTLVTVSS
VL: DIQLTQSPSSLSASVGDRVTITCKASQNIDYGGYSYMNWYQQKPGKAPKVLIYSVFNLESGVPSRFSGSGSGTDFTLTISSLQPEDFATYYCQQSNEAPYTFGQGTKLEIK
notes: 3E5 HC-2/3H10 LC2-2
Take B9: in the assay with Biotin-huCGRPaSA, the “Relative binding activity, %” value is 16%.

B10: hu168 (antibody, V domains shown)
VH: QVQLVQSGAEVKKPGASVKVSCKASGYTFTDYNMHWVRQAPGQRLEWMGYISPYNGGTAYNQKFKFRVTLTVDTSSSTAYMELSSLRSEDTAVYYCAREGLGGYWGQGTLVTVSS
VL: DIVLTQSPDSLAVSLGERATINCKASQNIDYGGYSYMNWYQQKPGQPPKVLIYSVFNLESGVPDRFSGSGSGTDFTLTISSLQAEDVAVYYCQQSNEAPYTFGQGTKLEIK
notes: 3E5 HC-2/3H10 LC2-1
Turning to B10, the “Relative binding activity, %” value with Biotin-huCGRPaSA turned out to be 68%.

B11: hu181 (antibody, V domains shown)
VH: QVQLVQSGAEVKKPGASVKVSCKASGYTFTDYNMHWVRQAPGQGLEWMGYISPYNGGTAYNQKFKFRVTLTVDTSSSTAYMELSRLRSDDTVVYYCAREGLGGYWGQGTLVTVSS
VL: DIVLTQSPDSLAVSLGERATINCKASQNIDYGGYSYMNWYQQKPGQPPKVLIYSVFNLESGVPDRFSGSGSGTDFTLTISSLQAEDVAVYYCQQSNEAPYTFGQGTKLEIK
notes: 3E5 HC-3/3H10 LC2-1
With B11, the “Relative binding activity, %” value in the assay with Biotin-huCGRPaSA is 67%.

B12: hu164 (antibody, V domains shown)
VH: QVQLVQSGAEVKKPGASVKVSCKASGYTFTDYNMHWVRQAPGQRLEWMGYISPYNGGTAYNQKFKFRVTLTVDTSSSTAYMELSSLRSEDTAVYYCAREGLGGYWGQGTLVTVSS
VL: DIVLTQSPDSLAVSLGERATINCKASQNIDFDGYAYMNWYQHKPGQPPKVLIYSVFNLESGVPDRFSGSGSGTDFTLTISSLQAEDVAVYYCQQSHEVPYTFGQGTKLEIK
notes: 3E5 HC-2/1F5 LC1-4
In the case of B12, the “Relative binding activity, %” value with Biotin-huCGRPaSA was determined as 56%.

B13: hu50 (antibody, V domains shown)
VH: QVQLVQSGAEVKKPGASVKVSCKASGYTFTDFNMHWVRQAPGQRLEWMGYIYPYNGDVVYNQNFTNRVTLTVDTSSSTAYMELSSLRSEDTAVYYCAREGLGGYWGQGTLVTVSS
VL: DIVLTQSPDSLAVSLGERATINCKASQNIDYDGYTYLNWYQQKPGQPPKVLIYSIFNLESGVPDRFSGSGSGTDFTLTISSLQAEDVAVYYCQQSNEVPYTFGQGTKLEIK
notes: 1F5 HC-2/3E5 LC-1
Regarding B13, in the assay with CGRP antigen, the “IC50” value was determined as 0.0668 µg/mL and the “relative activity (%) vs Ref(TEVA)” value came to 46%. The “Relative binding activity, %” value with Biotin-huCGRPaSA was 132%.

B14: hu63 (antibody, V domains shown)
VH: QVQLVQSGAEVKKPGASVKVSCKASGYTFTDFNMHWVRQAPGQGLEWMGYIYPYNGDVVYNQNFTNRVTLTVDTSSSTAYMELRSLRSDDTAVYYCAREGLGGYWGQGTLVTVSS
VL: DIVLTQSPDSLAVSLGERATINCKASQNIDYDGYTYLNWYQQKPGQPPKVLIYSIFNLESGVPDRFSGSGSGTDFTLTISSLQAEDVAVYYCQQSNEVPYTFGQGTKLEIK
notes: 1F5 HC-3/3E5 LC-1
Take B14: in the assay with CGRP antigen, the “IC50” value came out at 0.05 µg/mL and the “relative activity (%) vs Ref(TEVA)” value worked out at 62%. The “Relative binding activity, %” value with Biotin-huCGRPaSA turned out to be 122%.
